Molecular target: recombinant flounder IL-2 receptor beta, GST-tagged (GST-rfIL-2Rβ) (flounder (Paralichthys olivaceus))

percentage of CD4-1+ T lymphocytes in cultured flounder PBLs (FCM, 72 h), PHA + rfIL-2 after blocking with anti-rfIL-2Rβ polyclonal antibodies (order of 'respectively' assumed): 12.6%
percentage of CD4-1+ T lymphocytes in cultured flounder PBLs (FCM, 72 h), PHA + rfIL-2 group without blocking antibodies: 19.2%
percentage of CD4-1+ T lymphocytes in cultured flounder PBLs (FCM, 72 h), PHA + rfIL-2 with anti-rfIL-2 polyclonal antibodies (order of 'respectively' assumed): 7.2%
percentage of CD4-2+ T lymphocytes in cultured flounder PBLs (FCM, 72 h), PHA + rfIL-2 after blocking with anti-rfIL-2Rβ polyclonal antibodies (order of 'respectively' assumed): 11%
percentage of CD4-2+ T lymphocytes in cultured flounder PBLs (FCM, 72 h), PHA + rfIL-2 group without blocking antibodies: 14.5%
percentage of CD4-2+ T lymphocytes in cultured flounder PBLs (FCM, 72 h), PHA + rfIL-2 with anti-rfIL-2 polyclonal antibodies (order of 'respectively' assumed): 8.8%
percentage of IL-2Rβ+ cells in cultured flounder PBLs (FCM, 72 h), PHA + rfIL-2 after blocking with anti-rfIL-2Rβ polyclonal antibodies: 17.8%
percentage of IL-2Rβ+ cells in cultured flounder PBLs (FCM, 72 h), PHA + rfIL-2 group without blocking antibodies: 26.8%
percentage of IL-2Rβ+ cells in cultured flounder PBLs (FCM, 72 h), PHA + rfIL-2 with anti-rfIL-2 polyclonal antibodies: 13.3%
Substance: recombinant flounder IL-2 protein, His-tagged (His-rfIL-2) (ligand)

Source: paper PMC7509493
